Results on one molecule are retold here after patent US20040265295A1 (WISCONSIN ALUMNI RESEARCH FOUNDATION, published 2004).

This experiment deals with T1, talin (Homo sapiens (Human), UniProt Q9Y490 1-2541).
T1 construct: Endogenous talin of HEK293T (and other) cells, detected with anti-talin antibody; also called talin (endogenous, in cell lysates)
The experiment can be described thus: immunoprecipitation of talin from HEK293T cells overexpressing the kinase.

T1 sequence (Q9Y490 other isoform, or with tags, fused parts or gaps limits assumed): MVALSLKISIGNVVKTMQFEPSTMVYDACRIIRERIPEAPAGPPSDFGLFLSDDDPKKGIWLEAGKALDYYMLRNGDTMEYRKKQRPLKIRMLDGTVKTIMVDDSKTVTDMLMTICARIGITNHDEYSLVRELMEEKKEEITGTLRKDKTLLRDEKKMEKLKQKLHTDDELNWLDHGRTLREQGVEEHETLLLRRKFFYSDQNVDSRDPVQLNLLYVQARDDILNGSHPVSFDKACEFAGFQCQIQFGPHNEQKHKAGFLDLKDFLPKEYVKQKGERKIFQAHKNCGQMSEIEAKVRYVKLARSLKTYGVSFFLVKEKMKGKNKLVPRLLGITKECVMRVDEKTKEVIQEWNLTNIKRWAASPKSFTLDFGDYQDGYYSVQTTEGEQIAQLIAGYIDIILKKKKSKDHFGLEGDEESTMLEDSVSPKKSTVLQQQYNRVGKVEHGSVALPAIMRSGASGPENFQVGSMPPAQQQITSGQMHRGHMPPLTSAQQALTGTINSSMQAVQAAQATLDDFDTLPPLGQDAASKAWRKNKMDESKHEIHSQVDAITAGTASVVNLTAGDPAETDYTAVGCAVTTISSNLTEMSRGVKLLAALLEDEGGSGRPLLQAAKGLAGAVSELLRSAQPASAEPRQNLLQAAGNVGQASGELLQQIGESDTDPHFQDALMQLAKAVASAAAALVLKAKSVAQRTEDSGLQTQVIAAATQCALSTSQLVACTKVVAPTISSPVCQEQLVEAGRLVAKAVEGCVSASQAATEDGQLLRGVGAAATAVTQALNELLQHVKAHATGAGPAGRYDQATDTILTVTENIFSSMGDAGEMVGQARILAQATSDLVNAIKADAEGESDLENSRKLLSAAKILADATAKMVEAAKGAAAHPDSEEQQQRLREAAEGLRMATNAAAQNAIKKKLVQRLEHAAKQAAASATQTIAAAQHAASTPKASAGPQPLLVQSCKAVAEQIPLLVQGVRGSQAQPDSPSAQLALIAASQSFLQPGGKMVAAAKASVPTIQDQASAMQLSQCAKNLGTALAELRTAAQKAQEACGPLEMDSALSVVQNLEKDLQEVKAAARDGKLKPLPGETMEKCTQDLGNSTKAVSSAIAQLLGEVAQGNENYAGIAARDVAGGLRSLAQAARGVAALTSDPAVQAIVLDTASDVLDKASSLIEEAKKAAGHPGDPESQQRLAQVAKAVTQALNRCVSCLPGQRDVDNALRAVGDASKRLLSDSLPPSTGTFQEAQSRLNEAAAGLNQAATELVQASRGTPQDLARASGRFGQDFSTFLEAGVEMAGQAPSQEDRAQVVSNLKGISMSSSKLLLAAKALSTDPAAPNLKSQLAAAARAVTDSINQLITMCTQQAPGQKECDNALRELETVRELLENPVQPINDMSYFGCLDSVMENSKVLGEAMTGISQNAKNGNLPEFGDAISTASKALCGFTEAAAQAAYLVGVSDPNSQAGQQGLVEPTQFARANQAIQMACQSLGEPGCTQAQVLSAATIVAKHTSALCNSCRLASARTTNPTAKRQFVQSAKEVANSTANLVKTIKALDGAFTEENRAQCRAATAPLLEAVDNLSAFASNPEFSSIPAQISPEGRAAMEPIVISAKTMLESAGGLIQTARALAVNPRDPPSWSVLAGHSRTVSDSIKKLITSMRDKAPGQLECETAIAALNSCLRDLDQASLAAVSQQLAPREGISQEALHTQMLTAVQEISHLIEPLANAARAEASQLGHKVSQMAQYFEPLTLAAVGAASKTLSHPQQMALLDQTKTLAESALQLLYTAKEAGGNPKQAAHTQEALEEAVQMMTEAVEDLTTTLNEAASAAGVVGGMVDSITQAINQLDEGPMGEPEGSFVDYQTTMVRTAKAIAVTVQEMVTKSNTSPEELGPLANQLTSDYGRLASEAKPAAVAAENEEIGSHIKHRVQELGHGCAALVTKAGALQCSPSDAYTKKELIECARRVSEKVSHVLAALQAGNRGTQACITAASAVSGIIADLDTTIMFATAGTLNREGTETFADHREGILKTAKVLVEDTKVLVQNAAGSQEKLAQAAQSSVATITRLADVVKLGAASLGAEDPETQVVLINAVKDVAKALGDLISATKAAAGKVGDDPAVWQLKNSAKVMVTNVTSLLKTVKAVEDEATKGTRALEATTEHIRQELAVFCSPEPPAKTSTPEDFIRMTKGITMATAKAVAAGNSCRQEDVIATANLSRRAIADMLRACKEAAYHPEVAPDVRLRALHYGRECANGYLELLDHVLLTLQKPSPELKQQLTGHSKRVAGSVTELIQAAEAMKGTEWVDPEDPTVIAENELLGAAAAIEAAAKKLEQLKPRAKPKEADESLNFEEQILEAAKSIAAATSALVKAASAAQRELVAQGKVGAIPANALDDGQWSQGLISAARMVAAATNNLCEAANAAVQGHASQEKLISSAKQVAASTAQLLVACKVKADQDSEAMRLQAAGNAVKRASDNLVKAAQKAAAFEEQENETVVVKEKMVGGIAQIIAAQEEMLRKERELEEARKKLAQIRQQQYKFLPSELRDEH

B1: Haemagglutinin (HA)-tagged PIPKIγ635 (enzyme, not shown: small tags and cut ends)
chain: MELEVPDEAESAEAGAVTAEAAWSAESGAAAGMTQKKAGLAEAPLVTGQPGPGHGKKLGHRGVDASGETTYKKTTSSTLKGAIQLGIGYTVGNLSSKPERDVLMQDFYVMESIFFPSEGSNFTPAHHFQDFRFKTYAPVAFRYFRELFGIRPDDYLYSLCNEPLIELSNPGASGSVFYVTSDDEFIIKTVMHKEAEFLQKLLPGYYMNLNQNPRTLLPKFYGLYCVQSGGKNIRVVVMNNVLPRVVKMHLKFDLKGSTYKRRASKKEKEKSLPTYKDLDFMQDMPEGLLLDSDTFGALVKTLQRDCLVLESFKIMDYSLLLGVHNIDQQERERQAEGAQSKADEKRPVAQKALYSTAMESIQGGAARGEAIETDDTMGGIPAVNGRGERLLLHIGIIDILQSYRFIKKLEHTWKALVHDGDTVSVHRPSFYAERFFKFMSSTVFRKSSSLKSSPSKKGRGALLAVKPLGPTAAFSASQIPSEREDVQYDLRGARSYPTLEDEGRPDLLPCTPPSFEEATTASIATTLSSTSLSIPERSPSDTSEQPRYRRRTQSSGQDGRPQEEPHAEDLQKITVQVEPVCGVGVVPKEEGAGVEVPPCGASAAASVEIDAASQASEPASQASDEEDAPSTDIYF
Turning to B1, the binding result was “no binding”.
